Results taken from PMC13083928, “ALS mutations disrupt self-association between the ubiquilin STI1 hydrophobic groove and internal placeholder sequences” (The EMBO Journal, 2026).

B1: variant of the VAMP2 TMD, as it stands in the crystallization construct (peptide)
peptide: MMIALGVACAIALAIAAVYF
notes: variant of the VAMP2 TMD; Written as a molecule of its own because it is joined with the STI1 domain on one chain for the structure; in the experiment it was part of m1; source: part of the STI1-FrzS-TMD fusion; E. coli BL21 DE3 pRIL, purified (Ni-NTA, SEC)

Tests used:
[1] = target: 3xHA-Sec61β soluble domain-Omp25 TMD-3F4 (single substrate); details: 3 μM recombinant 3xFLAG-UBQLN2 variants; parent: est. 49; read off a plot
[2] = target: the molecule itself; experiment: crystal structure; STI1-FrzS-TMD fusion construct; hanging-drop vapor diffusion at 4 °C, 2.5% MPD, 100 mM Tris pH 8.5; 1.98 Å

Molecule	response (Elution / Input) [1]	binding result [2]
3xFLAG-UBQLN2 (wild type), recombinant (from UniProt Q9UHD9) M446R	57	–
3xFLAG-UBQLN2 (wild type), recombinant (from UniProt Q9UHD9) P440L	54	–
B1	–	binds
